Assay results published in paper PMC2114792.

Legend:
[1] = molecular target: mouse hexabrachion (mouse (endogenous in 3T3 cells)) (UniProt Q80YX1); experiment: rotary shadowing electron microscopy
[2] = molecular target: rat hexabrachion (rat (endogenous in normal rat kidney cells)); experiment: rotary shadowing electron microscopy

Row | Substance | stoichiometry N [1] | stoichiometry N [2]
1 | mouse hexabrachion, Q80YX1 23-2110 | 6 | 
2 | rat hexabrachion |  | 6
